# Measurements from patent US20080032929A1.
# Assays:
# [1] = biological target: rabbit α-tropomyosin purified from ventricular muscle (rabbit) (UniProt P58772); experiment: ELISA solid phase protein binding: cTnT coated, serial dilutions of rabbit α-tropomyosin, detected with mAb CH1; concentration of tropomyosin for 50% maximum binding
# [2] = biological target: bovine cardiac troponin I purified from ventricular muscle (bovine) (UniProt P08057); experiment: ELISA solid phase protein binding: cTnT coated, serial dilutions of bovine cardiac TnI, detected with mAb TnI-1; concentration of TnI required to reach 50% of maximum binding
# [3] = biological target: bovine cardiac troponin T (bovine) (UniProt P13789)
EC50 [1] [nM],EC50 [2] [nM],"relative amounts of intact and NH2-terminal truncated cTnT, densitometry of mAb CT3 Western blots of µ-calpain treated bovine cardiac myofibrils (% intact cTnT) [3]",Substance
9.73,8.73,–,"NH2-terminal truncated mouse cardiac troponin T (McTnT-ND72-291), reconstructed and expressed in E. coli (from UniProt P50752)"
13.5,15.3,–,"intact mouse cardiac troponin T (TnT4), expressed in E. coli (from UniProt P50752)"
–,–,1.5,µ-calpain (Calbiochem) (enzyme)
